# In patent US4532212A, “Process for the dissolution of peptides in non-aqueous and mixed non-aqueous/aqueous systems” (Shell Oil Company, priority 1983, dated 1985):
# Entries after “also recorded” stand apart in the source; their conditions may differ.
# Key:
# Type in all cases: physicochemical
# [1] = Protein separation with crown ether/methanol: iso-electric focusing of fractions; conditions: 18-crown-6 in methanol
# Description: Thus mixtures of cytochrome c and α-chymotrypsin (10 mg each, 8.1×10^-4 and 4×10^-4 m.mole, respectively) were treated with 18-crown-6 (28 mg, 0.11 m.mole) in methanol (2 ml). The red solution was filtered from undissolved protein (α-chymotrypsin) and dialysed against water, then buffer (Tris, pH 7.5, 0.10 M). Both filtrate and filtered protein fractions were examined using isoelectric focusing in order to establish the purity of the separations (results shown in Table 2).
# Mixtures of cytochrome c, BSA and α-chymotrypsin (10 mg each, 8,1×10^-4, 1.4×10^-4 and 4×10^-4 m.mole respectively) were treated with 18-crown-6 (50 mg, 0.19 m.mole) in methanol (2 ml) and the resulting red solution was filtered and then dialysed against water then buffer (Tris, pH 7.5, 0.01 M) to remove crown ether and methanol.
# [2] = Dissolution of peptides/proteins in organic solvents using crown ethers and cryptands; conditions: in words
# Description: ^(a) Protein concentration was in the range 0.05-0.8 mM depending on
# protein (i.e. cytochrome c, concentration was 0.8 mM, whereas, myoglobin
# concentrtion was 0.1 mM). In a typical experiment, small portions of CE
# (ca 2.0 mg, 7.6 × 10^-3 mmoles) were added to a suspension of
# protein/peptide (5 mg) in methanol (2 ml) at 4-25° C. with stirrin
# until the suspension dissolved.
# [3] = Protein crystallisation from methanol/18-crown-6/(NH4)2SO4; conditions: crystalline composite from methanol/18-crown-6/(NH4)2SO4
# Description: The solubilised protein solutions were stored at 4° C. within an outer tube containing ethyl acetate as precipitating co-solvent.
# [4] = mixture cytochrome c + BSA + α-chymotrypsin
Substance,"Iso-electric focusing results, pHI [1, 4]",Solubility in methanol with crown ether [2],"Iso-electric focusing results, pHI ([1]; mixture cytochrome c + α-chymotrypsin)",Circular dichroism / UV/visible spectroscopy of crystalline material (protein integrity) [3]
"Bovine serum albumin (BSA): bovine serum albumin, 513 amino acid residues as printed",5.5-6.0,–,–,–
"Cytochrome c: Cytochrome c from horse heart (Type III, from Sigma Chemical Co.), 104 residues",9.35,readily dissolves; also recorded: dissolves in methanol at a lower crown ether concentration than BSA,9.35,intact protein present
